Our source for the binding result and Kd values is PMC4780704, “A Parallel G Quadruplex-Binding Protein Regulates the Boundaries of DNA Elimination Events of Tetrahymena thermophila”.

One data set concerns the target T1, MBP-Lia3 (Tetrahymena thermophila, UniProt A3F815 1-322).
T1 sequence: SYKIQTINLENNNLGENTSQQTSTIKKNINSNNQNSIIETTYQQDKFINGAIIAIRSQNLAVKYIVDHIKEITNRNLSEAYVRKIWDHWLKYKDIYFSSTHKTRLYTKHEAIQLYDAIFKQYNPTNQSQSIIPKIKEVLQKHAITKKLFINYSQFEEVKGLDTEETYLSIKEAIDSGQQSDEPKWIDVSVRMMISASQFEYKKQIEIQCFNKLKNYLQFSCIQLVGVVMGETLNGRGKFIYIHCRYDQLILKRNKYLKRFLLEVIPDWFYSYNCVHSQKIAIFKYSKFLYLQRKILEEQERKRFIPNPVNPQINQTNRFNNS
Description: competition; excess vs G4-M1 probe; 400 nM protein; EMSA: 10 mM Tris pH 7.5, 1 mM EDTA, 0.1 mM DTT, 5% glycerol, 0.010 mg/ml BSA, 100 mM KCl (or 100 mM LiCl to limit G4), 4 nM probe, RT. The settings on record: protein: recombinant; tags: N-terminal MBP-TEV-His; linear, no G4.

In data set [1] the target is T2, His-Lia3 (Tetrahymena thermophila, UniProt A3F815 1-322).
T2 sequence: T1 sequence
The data set is described as follows: EMSA; 100 mM KCl; EMSA: 10 mM Tris pH 7.5, 1 mM EDTA, 0.1 mM DTT, 5% glycerol, 0.010 mg/ml BSA, 100 mM KCl (or 100 mM LiCl to limit G4), 4 nM probe, RT. The settings on record: protein: recombinant; tags: N-terminal His; label: 32P (5' PNK); mixed G4 (100 mM KCl).

In data set [2] the target is T2, His-Lia3. Description: competition; 5X/20X vs G4-M1 probe; EMSA: 10 mM Tris pH 7.5, 1 mM EDTA, 0.1 mM DTT, 5% glycerol, 0.010 mg/ml BSA, 100 mM KCl (or 100 mM LiCl to limit G4), 4 nM probe, RT. The settings on record: protein: recombinant; tags: N-terminal His; parallel intermolecular G4, 4 strands (100 mM KCl).

B1: M1-C3 (C3G2 mutant) (ssDNA)
DNA: TTTATTAATCAAAAACCCGGTAAATAATAA
Turning to B1, the binding result with MBP-Lia3 is given as “no binding”.

B2: G4 Tetrahymena telomere (structured_DNA)
DNA: TTGGGGTTGGGGTTGGGGTTGGGG
As to B2, in the data set with His-Lia3 [1], the Kd amounted to 11.5 µM.

B3: G4-M2 (structured_DNA)
DNA: TTCAAGACAAAAAAAGGGGGATGGGTTTCC
Take B3: in the data set with His-Lia3 [2], the binding result is given as “binds”.
